1 substance from patent publication US20040087498A1, “Modified factor VII” (Novo Nordisk Health Care AG, priority 1991, published 2004) can be followed below.

Values joined by “and” are separate entries in the source; they are usually repeats but may differ in a detail not shown here. Equal values may be shown once. A value given as a limit tells only on which side of the number the result lay.

In data set [1] the test system is cell-surface tissue factor on baboon smooth muscle cells. The data set can be described thus: Cell-surface Factor Xa generation on baboon SMCs. It is filed as cell-based. An excerpt: A cell-surface chromogenic assay was developed, essentially as described in Example VIII above, to measure the efficacy of DEGR-FVIIa to block FVIIa binding to cell-surface tissue factor and the subsequent conversion of Factor X to Factor Xa on monolayers of baboon smooth muscle cells (SMCs). This method is a modification of those described by Sakai et al., J. Bio. Chem. 264:9980-9988 (1989) and Wildgoose et al., Proc. Natl. Acad. Sci. USA. 87:7290-7294 (1990). Baboon SMCs were obtained from the University of Washington, Seattle, Wash., and were cultured from aortic explants. The baboon SMCs were plated into 96-well culture dishes at a concentration of 8,000 cells/well in 200 μl/well DMEM culture media supplemented with 10% fetal calf serum, and maintained in this media for 4 days at 37° C. in 5% CO2. At the time of assay 110 μl of culture media was removed, and increasing concentrations of FVIIa or FVIIa in combination with DEGR-FVIIa were added to wells. A standard curve for FVIIa concentration was generated, ranging from 5 nM to 0.04 nM. […] Twenty-five microliters per well of 0.8 mM S-2222, a factor Xa-specific chromogenic substrate, in Tris buffer was added and the absorbance at 405 nm read after 60 mins in a Thermomax microplate reader (Molecular Devices Corp., Menlo Park, Calif.).

Data set [2] can be described thus: ELISA for DEGR-FVIIa in rabbit plasma. Format: in vivo. The following applies: for FVIIa ELISA, DEGR-FVIIa in rabbit plasma, individual animals: listed as DEGR-FVIIa. As to the method:
The test drug delivery for the animals consisted of an initial bolus injection immediately prior to balloon angioplasty, followed by a continuous systemic infusion by osmotic pump via the internal jugular vein. The duration of the drug infusion was 3 days. The control animals received heparin, 150 U/kg IV bolus, prior to balloon angioplasty followed by saline infusion. The DEGR-FVIIa treated animals received a 1 mg/kg bolus injection followed by 50 μg/kg/hr infusion.
Prothrombin time and concentration of DEGR-FVIIa in the blood were determined at immediately pre-bolus injection of the test compound, 1 hr post bolus injection, and at 3 days at the end of continuous infusion. One to two mls of citrated plasma was obtained and the prothrombin times and antigen levels determined.
An ELISA assay was used to determine the concentration of DEGR-FVIIa in plasma samples from the control and DEGR-FVIIa treated rabbits. The assay involved first diluting an anti-human FVII monoclonal antibody (Dr. W. Kisiel, U. of New Mexico) to 2.0 μg/ml in 0.1 M carbonate buffer pH 9.6, and adding 100 μl/well to 96-well plates. The plates were then incubated at 4° C. overnight and subsequently washed two times using wash buffer (PBS, pH 7.4, containing 0.05% Tween 20).
After blocking, a standard dilution series of DEGR-FVIIa ranging from 20-0.027 ng/ml was added, along with a dilution series of the test rabbit plasma (1:100 to 1:4000 in blocking buffer) applied at 100 μl/well. Non-immune rabbit plasma was used as a negative control. Plates were then incubated for 1 hr at 37° C. followed by four washes with wash buffer.
DEGR-FVIIa was detected by adding 100 μl/well of a 1:1,000 dilution of rabbit anti-human FVII polyclonal antibody (Dr. Kisiel, U. New Mexico) in blocking buffer. Plates were incubated for 1 hr at 37° C., followed by five washes with wash buffer. Specific antibody binding was detected using 100 μl/well of a 1:2,000 dilution of goat anti-rabbit IgG antibody-peroxidase conjugate (Tago, Inc.). Plates were incubated for 1 hr at 37° C. and washed six times with wash buffer. Finally, 100 μl of substrate solution was added (0.42 mg/ml of o-phenylenediamine dihydrochloride [OPD] in 0.2 M citrate buffer, pH 5.0, containing 0.3% H2O2). After 1-3 min at room temp. the color reaction was stopped by adding 100 μl/well of 1N H2SO4 and the plates were read at 490 nm on a Microplate spectrophotometer. The concentration of DEGR-FVIIa in the plasma samples was determined by comparing the A490 values of the unknown to those of the DEGR-FVIIa standard curve.

For the substance “DEGR-Factor VIIa: Recombinant human Factor VIIa with its active site derivatized by Dansyl-L-Glu-Gly-Arg-chloromethyl Ketone (DEGRck)”, in data set [1] (10-fold lower level of DEGR-FVIIa than FVIIa (5 nM)), the “inhibition in the generation of Factor Xa chromogenic activity” value was 40%. Further, the “inhibition of the chromogenic activity” value in data set [1] (equal molar ratio of DEGR-FVIIa to FVIIa (5 nM)) is on record as greater than 90%. The “FVIIa ELISA, DEGR-FVIIa in rabbit plasma, individual animals” value was 3,210 ng/ml and 4,950 ng/ml and 4,543 ng/ml and 4,900 ng/ml and 4,600 ng/ml and 2,145 ng/ml and 2,830 ng/ml in data set [2] (1 hour after 1 mg/kg bolus, 50 μg/kg/hr infusion); 102 ng/mL and 7 ng/mL and 661 ng/mL and 117 ng/mL and 502 ng/mL and 212 ng/mL and 228 ng/mL in data set [2] (3 days, end of 50 μg/kg/hr infusion); 0 ng/ml and 1 ng/ml and 13 ng/ml (2×) and 65 ng/ml and 4 ng/ml and 9 ng/ml in data set [2] (Pretreatment). In addition, the “DEGR-FVIIa antigen level in the plasma” value in data set [2] (rabbit, 1 hr time point, range over animals) is 2 to 6 µg/mL.
